{"source": "paper doi:10.1101/2021.07.02.450967", "about": "(bioRxiv, 2021)", "binders": {"B1": {"name": "HEY1, made in the cell-free protein production system (natural protein)", "chain": "MKRAHPEYSSSDSELDETIEVEKESADENGNLSSALGSMSPTTSSQILARKRRRGIIEKRRRDRINNSLSELRRLVPSAFEKQGSAKLEKAEILQMTVDHLKMLHTAGGKGYFDAHALAMDYRSLGFRECLAEVARYLSIIEGLDASDPLRVRLVSHLNNYASQREAASGAHAGLGHIPWGTVFGHHPHIAHPLLLPQNGHGNAGTTASPTEPHHQGRLGSAHPEAPALRAPPSGSLGPVLPVVTSASKLSPPLLSSVASLSAFPFSFGSFHLLSPNALSPSAPTQAANLGKPYRPWGTEIGAF"}}, "biological_target": "T1, SOX7, made in the cell-free protein production system (UniProt Q9BT81 1-388)", "T1 sequence": "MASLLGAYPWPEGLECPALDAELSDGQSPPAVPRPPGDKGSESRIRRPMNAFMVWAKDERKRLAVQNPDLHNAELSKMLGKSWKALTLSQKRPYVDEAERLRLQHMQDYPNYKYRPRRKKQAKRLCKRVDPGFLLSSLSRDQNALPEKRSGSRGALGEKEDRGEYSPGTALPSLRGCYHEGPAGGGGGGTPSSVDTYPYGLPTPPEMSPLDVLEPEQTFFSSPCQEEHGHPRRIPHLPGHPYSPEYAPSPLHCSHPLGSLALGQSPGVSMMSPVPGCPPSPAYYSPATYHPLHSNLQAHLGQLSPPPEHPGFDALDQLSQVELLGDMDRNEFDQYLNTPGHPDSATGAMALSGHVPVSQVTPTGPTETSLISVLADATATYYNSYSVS", "test": "single molecule two-colour coincidence spectroscopy", "note": "Where “and” joins values, the source holds several entries; their conditions need not be identical. Identical values can stand only once.", "data": [{"binder": "B1", "values": [{"measurement": "stoichiometry N", "value": "1 HEY1 per SOX7 (1:1) and 2 HEY1 per SOX7 (1:2, order as printed)"}]}]}
